Assay in all cases: SPR, KD relative to WT C2;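 also: biacore SPR at 37 °C, anti-C2 mAbs captured via immobilised goat anti-human IgG, C2 alanine or serine surface mutants as analytes, 1:1 model fitted, double-referenced sensograms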
Background: SPR reads the build-up and loss of mass on a sensor chip optically.

One assay has as its target T1, human C2 K415A (human, UniProt P06681 21-752).
T1 sequence: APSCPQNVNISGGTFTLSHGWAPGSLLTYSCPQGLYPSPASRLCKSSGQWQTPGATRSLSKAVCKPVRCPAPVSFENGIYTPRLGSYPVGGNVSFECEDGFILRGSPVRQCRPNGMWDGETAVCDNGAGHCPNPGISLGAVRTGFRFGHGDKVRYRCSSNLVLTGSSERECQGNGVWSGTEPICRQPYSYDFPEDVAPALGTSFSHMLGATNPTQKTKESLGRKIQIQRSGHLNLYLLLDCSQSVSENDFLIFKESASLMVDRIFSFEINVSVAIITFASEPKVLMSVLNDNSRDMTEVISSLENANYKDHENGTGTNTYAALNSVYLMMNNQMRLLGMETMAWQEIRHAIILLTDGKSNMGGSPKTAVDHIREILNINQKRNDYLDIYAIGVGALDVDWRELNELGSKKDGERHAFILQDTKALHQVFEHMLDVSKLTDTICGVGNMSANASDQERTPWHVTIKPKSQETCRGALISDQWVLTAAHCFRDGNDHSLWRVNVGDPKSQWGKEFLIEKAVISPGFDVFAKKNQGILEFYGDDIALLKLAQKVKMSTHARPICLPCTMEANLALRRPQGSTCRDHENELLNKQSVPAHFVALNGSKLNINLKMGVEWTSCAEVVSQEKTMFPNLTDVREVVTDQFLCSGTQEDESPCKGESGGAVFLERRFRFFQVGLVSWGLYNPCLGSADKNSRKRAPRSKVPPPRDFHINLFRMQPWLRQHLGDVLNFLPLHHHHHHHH

Another assay deals with T2, human C2 E433A (human, UniProt P06681 21-752).
T2 sequence: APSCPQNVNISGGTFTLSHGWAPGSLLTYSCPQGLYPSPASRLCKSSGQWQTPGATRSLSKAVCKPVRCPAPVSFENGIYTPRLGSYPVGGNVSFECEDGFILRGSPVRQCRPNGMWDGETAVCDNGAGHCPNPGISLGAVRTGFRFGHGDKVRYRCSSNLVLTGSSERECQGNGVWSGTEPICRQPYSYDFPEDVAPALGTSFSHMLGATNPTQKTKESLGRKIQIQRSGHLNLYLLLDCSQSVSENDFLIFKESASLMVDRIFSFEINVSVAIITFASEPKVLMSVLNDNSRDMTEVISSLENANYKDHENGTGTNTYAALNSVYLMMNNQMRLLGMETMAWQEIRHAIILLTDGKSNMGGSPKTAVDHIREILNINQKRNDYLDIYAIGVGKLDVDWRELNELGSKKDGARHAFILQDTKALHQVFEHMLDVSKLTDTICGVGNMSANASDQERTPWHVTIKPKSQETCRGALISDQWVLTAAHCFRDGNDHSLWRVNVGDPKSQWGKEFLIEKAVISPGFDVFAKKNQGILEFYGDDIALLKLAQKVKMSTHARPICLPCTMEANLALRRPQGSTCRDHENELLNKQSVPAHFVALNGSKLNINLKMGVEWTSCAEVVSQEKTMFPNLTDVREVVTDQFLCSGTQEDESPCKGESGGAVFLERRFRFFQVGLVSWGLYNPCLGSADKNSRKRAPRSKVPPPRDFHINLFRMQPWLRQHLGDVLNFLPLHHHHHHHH

The target of a further assay is T3, human C2 L453A (human, UniProt P06681 21-752).
T3 sequence: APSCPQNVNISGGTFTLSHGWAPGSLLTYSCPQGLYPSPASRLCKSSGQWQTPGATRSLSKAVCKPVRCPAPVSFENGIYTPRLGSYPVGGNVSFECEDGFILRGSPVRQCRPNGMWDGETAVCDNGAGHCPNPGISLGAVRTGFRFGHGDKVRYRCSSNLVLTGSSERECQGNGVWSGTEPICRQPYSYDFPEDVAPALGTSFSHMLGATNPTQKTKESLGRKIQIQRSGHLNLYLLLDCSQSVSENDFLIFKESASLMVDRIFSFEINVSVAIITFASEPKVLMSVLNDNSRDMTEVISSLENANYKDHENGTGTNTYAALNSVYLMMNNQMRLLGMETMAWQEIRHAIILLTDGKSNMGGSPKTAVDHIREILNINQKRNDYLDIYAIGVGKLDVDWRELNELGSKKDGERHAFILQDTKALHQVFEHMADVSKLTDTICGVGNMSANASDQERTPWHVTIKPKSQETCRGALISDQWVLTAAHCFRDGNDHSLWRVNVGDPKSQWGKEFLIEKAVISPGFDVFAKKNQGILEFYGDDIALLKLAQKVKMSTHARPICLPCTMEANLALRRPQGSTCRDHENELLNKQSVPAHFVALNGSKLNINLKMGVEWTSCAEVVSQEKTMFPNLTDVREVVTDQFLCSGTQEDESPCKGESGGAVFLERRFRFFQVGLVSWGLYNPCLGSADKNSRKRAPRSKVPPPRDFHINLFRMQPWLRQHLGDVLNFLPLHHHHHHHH

In a further assay the target is T4, human C2 A472S (human, UniProt P06681 21-752).
T4 sequence: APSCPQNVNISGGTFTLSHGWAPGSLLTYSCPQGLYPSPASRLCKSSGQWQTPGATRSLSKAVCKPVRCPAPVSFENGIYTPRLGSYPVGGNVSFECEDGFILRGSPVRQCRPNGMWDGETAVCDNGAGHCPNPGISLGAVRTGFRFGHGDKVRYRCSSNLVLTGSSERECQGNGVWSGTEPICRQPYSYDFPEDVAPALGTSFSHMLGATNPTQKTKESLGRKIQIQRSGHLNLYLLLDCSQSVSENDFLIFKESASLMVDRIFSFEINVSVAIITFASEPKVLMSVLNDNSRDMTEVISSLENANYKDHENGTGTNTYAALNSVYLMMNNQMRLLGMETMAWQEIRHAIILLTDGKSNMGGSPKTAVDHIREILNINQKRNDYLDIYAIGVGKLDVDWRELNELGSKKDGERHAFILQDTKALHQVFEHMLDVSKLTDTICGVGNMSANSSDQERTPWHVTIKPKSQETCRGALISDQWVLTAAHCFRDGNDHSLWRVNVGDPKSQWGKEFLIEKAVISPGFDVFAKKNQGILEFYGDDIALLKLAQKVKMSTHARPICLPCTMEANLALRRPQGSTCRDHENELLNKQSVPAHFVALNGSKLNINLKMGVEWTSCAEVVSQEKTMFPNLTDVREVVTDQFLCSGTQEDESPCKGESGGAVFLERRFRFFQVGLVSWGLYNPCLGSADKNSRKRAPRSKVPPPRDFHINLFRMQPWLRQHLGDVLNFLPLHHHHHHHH

B1: RF16-226 (antibody, human IgG4 S228P, lambda)
heavy: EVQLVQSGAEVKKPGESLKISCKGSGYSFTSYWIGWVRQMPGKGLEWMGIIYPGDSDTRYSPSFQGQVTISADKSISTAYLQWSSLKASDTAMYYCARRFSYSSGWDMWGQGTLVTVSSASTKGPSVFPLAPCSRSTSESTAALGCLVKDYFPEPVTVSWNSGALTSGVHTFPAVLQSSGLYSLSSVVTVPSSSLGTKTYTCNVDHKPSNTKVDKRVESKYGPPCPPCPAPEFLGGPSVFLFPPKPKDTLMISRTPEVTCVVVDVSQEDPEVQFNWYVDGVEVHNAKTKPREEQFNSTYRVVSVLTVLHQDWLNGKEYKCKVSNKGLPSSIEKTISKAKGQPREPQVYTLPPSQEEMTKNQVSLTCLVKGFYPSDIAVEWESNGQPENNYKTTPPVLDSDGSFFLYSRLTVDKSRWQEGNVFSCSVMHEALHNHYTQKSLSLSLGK
light: SYELTQPPSVSVSPGQTARITCSGDALTSKYVAWYQQKSGLAPLLVIYEDTRRPSGIPAKFSGSSSGSVATLTISGAHGDDEADYYCYSTDASGHQRVFGGGTKLTVLSQPKAAPSVTLFPPSSEELQANKATLVCLISDFYPGAVTVAWKADGSPVKAGVETTKPSKQSNNKYAASSYLSLTPEQWKSHRSYSCQVTHEGSTVEKTVAPTECS
notes: pH-dependent anti-C2 antibody from a phage display library; also called WT
Take B1: the Fold diff in the assay with human C2 K415A came out at 1 fold; with human C2 E433A, 0 fold; in the assay with human C2 L453A, 3 fold; with human C2 A472S, 5 fold.

These data come from patent US20220332804A1 (CSL INNOVATION, published 2022).
